Assay [1] has as its target T1, human Tom70 (residues 108–608) (human, UniProt O94826 108-608).
T1 chain: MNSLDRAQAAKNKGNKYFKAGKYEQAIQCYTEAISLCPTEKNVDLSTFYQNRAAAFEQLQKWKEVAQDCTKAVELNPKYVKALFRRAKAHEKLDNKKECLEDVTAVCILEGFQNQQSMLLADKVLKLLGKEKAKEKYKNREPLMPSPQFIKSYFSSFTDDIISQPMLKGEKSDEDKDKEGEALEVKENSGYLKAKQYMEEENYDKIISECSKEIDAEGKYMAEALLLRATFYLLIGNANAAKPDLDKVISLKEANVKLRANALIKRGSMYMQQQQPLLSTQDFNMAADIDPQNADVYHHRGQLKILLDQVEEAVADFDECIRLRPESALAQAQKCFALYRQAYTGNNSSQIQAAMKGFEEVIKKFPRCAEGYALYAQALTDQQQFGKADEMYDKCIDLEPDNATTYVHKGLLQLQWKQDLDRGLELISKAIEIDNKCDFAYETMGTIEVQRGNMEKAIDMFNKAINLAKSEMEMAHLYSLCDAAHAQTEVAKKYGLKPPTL
Kind of assay: ITC; average. Background: Isothermal titration calorimetry measures the heat released or taken up as one component is titrated into another.

The target in assay [2] is T2, Tom70:Orf9b_(Helix) complex (human | SARS-CoV-2, UniProt O94826 108-608).
T2 chain 1: T1 chain
T2 chain 2: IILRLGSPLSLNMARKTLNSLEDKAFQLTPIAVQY
Put plainly: ITC.

In assay [3] the target is T1, human Tom70 (residues 108–608). Put plainly: ITC; run 1.
Assay [4] has the same target. Kind of assay: ITC; run 2.
For assay [5] the target is unchanged. Put plainly: ITC; run 3.
Assay [6] addresses T2, Tom70:Orf9b_(Helix) complex. Kind of assay: ITC.
In assay [7] the target is T1, human Tom70 (residues 108–608). Put plainly: ITC.

Several values for one entry are separate records, joined by “and”; a condition that tells them apart may be missing. Equal values may be shown once. Read-outs that look alike come from different tables or passages of the source. Where no end group is shown, it is not given here.

B1: Hsp90_(EEVD) peptide (peptide)
peptide: YDTSRMEEVD-OH
For orientation: Kd means the free concentration of one partner at which half of the binding sites on the other are occupied at equilibrium, for simple one-to-one binding. High values mean lower affinity, low ones higher affinity. Regarding B1, the Kd was 11.9 µM in assay [1]; 12.4 µM and 12.8 µM and 12.3 µM and 11.8 µM in assay [2]; 12.8 µM in assay [3]; 10.9 µM in assay [4]; 11.9 µM in assay [5]; 12 µM in assay [6]. This molecule also returned a Kd in assay [7] of 12 µM.

The values are drawn from publication doi:10.1101/2025.11.18.689095 (2025).
